Reference: patent publication US20180296694A1 (IMMUNOGEN, published 2018)

B1: Mov19v1.6-GMBS-dAlalAla-PAB-DM1 (conjugate 4b) (antibody, human IgG1, kappa, V domains shown)
VH: QVQLVQSGAEVVKPGASVKISCKASGYTFTGYFMNWVKQSPGQSLEWIGRIHPYDGDTFYNQKFQGKATLTVDKSSNTAHMELLSLTSEDFAVYYCTRYDGSRAMDYWGQGTTVTVSS
VL: DIVLTQSPLSLAVSLGQPAIISCKASQSVSFAGTSLMHWYHQKPGQQPRLLIYRASNLEAGVPDRFSGSGSKTDFTLTISPVEAEDAATYYCQQSREYPYTFGGGTKLEIKR
modifications: D-Ala-L-Ala-PAB-DM1 linked through GMBS, about 3.5 DM/Ab
B2: M9346A-sGMBS-LDL-DM (conjugate 17c) (antibody, human IgG1, kappa, V domains shown)
VH: B1 VH
VL: B1 VL
modifications: maytansinoid LDL-DM (compound 14c, L-Ala-D-Ala-L-Ala) linked through sulfo-GMBS to antibody amines, 3.7 mol LDL-DM/mol antibody
B3: conjugate 17h (antibody, human IgG1, kappa, V domains shown)
VH: B1 VH
VL: B1 VL
modifications: thio-peptide-maytansinoid 14h linked through sulfo-GMBS to antibody amines (Example 4)
B4: conjugate 17g (antibody, human IgG1, kappa, V domains shown)
VH: B1 VH
VL: B1 VL
modifications: thio-peptide-maytansinoid 14g linked through sulfo-GMBS to antibody amines (Example 4)
B5: conjugate 17i (antibody, human IgG1, kappa, V domains shown)
VH: B1 VH
VL: B1 VL
modifications: thio-peptide-maytansinoid 14i linked through sulfo-GMBS to antibody amines (Example 4)

Target: folate receptor alpha (FRα) on cells (human, UniProt P15328 25-234)
Test: cell-based or functional assay

folate receptor alpha (FRα) on cells, sequence (P15328 25-234): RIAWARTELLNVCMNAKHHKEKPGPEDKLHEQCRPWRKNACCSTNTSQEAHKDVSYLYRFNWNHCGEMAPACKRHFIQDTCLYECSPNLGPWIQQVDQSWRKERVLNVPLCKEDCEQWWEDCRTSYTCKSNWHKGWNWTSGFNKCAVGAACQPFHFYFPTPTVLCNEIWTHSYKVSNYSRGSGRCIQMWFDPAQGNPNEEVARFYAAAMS

| Binder | IC50, in vitro cytotoxicity (WST-8, 5 days), Igrov-1 cells, +Block [nM] | IC50, in vitro cytotoxicity (WST-8, 5 days), Igrov-1 cells, ADC [nM] | IC50, in vitro cytotoxicity (WST-8, 5 days), Jeg-3 cells, +Block [nM] | IC50, in vitro cytotoxicity (WST-8, 5 days), Jeg-3 cells, ADC [nM] | IC50, in vitro cytotoxicity (WST-8, 5 days), KB cells, +Block [nM] | IC50, in vitro cytotoxicity (WST-8, 5 days), KB cells, ADC [nM] | IC50, in vitro cytotoxicity (WST-8, 5 days), SKOV-6 cells, +Block [nM] | IC50, in vitro cytotoxicity (WST-8, 5 days), SKOV-6 cells, ADC [nM] |
| --- | --- | --- | --- | --- | --- | --- | --- | --- |
| B1 | 20 | 0.3 | 10 | 0.2 | > 50 | 0.2 | 10 | 0.9 |
| B2 | > 50 | 7 | > 50 | 0.6 | > 50 | 0.3 | > 50 | > 10 |
| B3 | > 50 | 30 | > 50 | 0.5 | > 50 | 0.4 | > 50 | > 10 |
| B4 | > 50 | 3 | > 50 | 0.5 | > 50 | 0.3 | > 50 | > 10 |
| B5 | > 50 | 50 | > 50 | 0.7 | > 50 | 0.3 | > 50 | > 10 |
